Measured values published in article PMC9122598, “NASP maintains histone H3–H4 homeostasis through two distinct H3 binding modes” (Nucleic Acids Research, 2022).

System: H3–H4 tetramer
Assay: GST pulldown of H3–H4 with frog GST-NASP.Sc
Type: binding
Experimental: As mentioned above the GST-tagged sNASPc, frog NASP.Sc and their mutants could not be separated into dimer and monomer peaks during the purification steps, the conformations of these proteins used for pulldowns were mixtures of dimer and monomer. […] All the samples were analyzed with SDS-PAGE.

B1: frog NASP.S: frog homologue of sNASP (N1/N2); tested as GST-NASP.Sc dimer/monomer mixture (protein)
chain: SAEKADGIDIDTEAKRLMGAGQKHLVMKDVRSAVNLFQEASSLLAKQYGETADECAEAFYSYGMSLLELARLENEGTEEKETEEEDVGNLQLAWEMLDLCKTIFKRQQSKEAQLKAAQAHQKLGEVCIESENYSQAVEDFLACLNIQKEHLEEHDRLLAETHYHLGLAYQYSSKHEEAISHFTQSIGVIEKRMDVLTKQLEASVGELVDEVKKEMDELKDLLPDIKEKIEDSKEAQKNATVTEKALKETLVGGSS
modifications: left off: GST, N-terminal, cleaved
notes: frog homologue of sNASP (N1/N2); tested as GST-NASP.Sc dimer/monomer mixture
Retention of H3 vs H4 in pulldown (in the absence of H3 αN-binding): retained more H3 than H4 | Pulldown binding to H3–H4 (incubation 0.3 M NaCl, wash […] NaCl): H3 αN- and α3-binding sites are conserved
